The target of test [1] is T1, recombinant human ENA-78 (human, UniProt P42830 37-114).
T1 sequence (looked up): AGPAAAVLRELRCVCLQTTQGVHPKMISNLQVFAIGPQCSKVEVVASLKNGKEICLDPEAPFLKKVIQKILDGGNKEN
The test is described as follows: ELISA, hybridoma supernatant on immobilized recombinant chemokine. From the text:
(§1) Hyridoma supernatants were screened for their antibody binding activities to recombinant human IL-8, Groβ and ENA-78, immobilized on ELISA plates. […] They were further assessed for their ability to recognize guinea pig and cynomolgus monkey orthologues. Selected hybridomas were cloned by limiting dilution cloning. The antibody designated 1C1.5E5 was one of the antibodies specific for human IL-8 that were selected for further analysis. Following humanization, the antibody combinations designated A0L0, A0L1, A0L2, AIL0, AIL1, and AIL2 also were determined to retain the ability to bind human IL-8.
A general note: ELISA stands for enzyme-linked immunosorbent assay.

In test [2] the target is T2, recombinant human Groβ (human, UniProt P19875 35-107).
T2 construct: also called Gro-beta
T2 sequence (looked up): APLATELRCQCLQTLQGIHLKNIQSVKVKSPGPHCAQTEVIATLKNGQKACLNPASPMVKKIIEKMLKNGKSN
The description is as above.
From the text: as §1

In test [3] the target is T3, human IL-8 (interleukin-8) (human, UniProt P10145 28-99, limits assumed).
T3 construct: also called recombinant human IL-8
T3 sequence (looked up): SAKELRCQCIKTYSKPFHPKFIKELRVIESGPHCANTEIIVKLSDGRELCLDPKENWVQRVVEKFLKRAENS
The test is described as follows: SPR (Biacore T100/A100), mouse mAb captured on anti-mouse IgG-Fc, IL-8 as analyte, 1:1 model. From the text:
Protein A or rabbit anti mouse IgG-Fc (Biacore BR-1005-14) was immobilised on a CM5 (Biacore BR-1000-14) chip by primary amine coupling in accordance with the manufactures instructions. Supernatant or purified from parental mouse mAb was captured on the antimouse IgG-Fc surface whilst chimeric antibody was captured on the Protein A surface. After capture defined concentrations of IL8 are passed over the antibody captured surface, a separate capture event was used for each analyte injection. […] An injection of buffer was also passed over the antibody captured surface and this was used for double referencing. For the analysis of the parental supernatant, an additional injection of an irrelevant mAb supernatant was injected over the antibody captured surface to detect any non-specific binding due to supernatant components. The data were analysed using the analysis software inherent to the machine, using the 1:1 model of binding. The work was carried out on the Biacore T100 or A100.
Background: In SPR one partner is held on a chip, and binding of the other changes the refractive index at the surface.

The target in test [4] is T3, human IL-8 (interleukin-8). In words: SPR (Biacore T100, 25 C), antibody captured on anti-human IgG, IL-8 as analyte, 1:1 model, Run 2. From the text:
(§2) Briefly the method for Biacore analysis was as follows, anti human IgG (Biacore BR-1008-39) was immobilised on a CM5 sensor chip via primary amine coupling. The humanised or chimeric antibodies were captured on this surface at between 440-500 resonance units (RU's). IL8 was then passed over the captured antibody surface at defined concentrations with regeneration using 3M MgCl₂ after each cycle. A buffer injection over the antibody captured surface was used for double referencing. The run was carried out at 25° C. using HBS-EP buffer, on A Biacore T100 machine. The data was analysed using the 1:1 model in the analysis software inherent to the machine. Table below details the results from two separate runs. Run 1 used IL8 concentrations of 64 nM, 16 nM, 4 nM, 1 nM, 0.25 nM, whilst Run 2 used II8 concentrations 32 nM, 16 nM, 8 nM, 4 nM, 2 nM, 1 nM, 0.5 nM, 0.25 nM.

Test [5] concerns the target T3, human IL-8 (interleukin-8). In words: SPR (Biacore T100, 25 C), antibody captured on anti-human IgG, IL-8 as analyte, 1:1 model, Run 1.
From the text: as §2

Test [6] addresses T3, human IL-8 (interleukin-8). The test is described as follows: ELISA.

B1: mouse monoclonal antibody 1C1.5E5 (antibody, V domains shown)
VH: QVQLQQPGVELVMPGASVKLSCKASGYTFTSYWMHWVKQRPGQGLEWIGEIDPSDSNTNYNQKFKGKATLTLDKSSSTAYMQLTSLTSEDSAVYYCARELLHAVYWGQGTTLTVSS
VL: DIQMTQSPSSLSASLGGKVTITCTASQDIHKYISWFQHKPGKGPRLLIHYTSTLQPGIPSRFSGSGSGRDYSFSISNLEPEDVATYYCLQYDNLWTFGGGTKLDIKR
notes: also called 1C1.5E5 mAb
One may read the Kd as the equilibrium constant for the complex coming apart. For orientation: koff means the rate constant with which the complex falls apart. Turning to B1, the binding result in test [1] and in test [2] was “no binding” throughout. In test [3], the Kd came out at 0.0454 nM. In addition, the koff in test [3] stood at 0.000184 s⁻¹.

B2: chimeric antibody HcLc made from murine 1C1.5E5 (antibody, human IgG1, kappa, V domains shown)
VH: QVQLQQPGVELVMPGASVKLSCKASGYTFTSYWMHWVKQRPGQGLEWIGEIDPSDSNTNYNQKFKGKATLTLDKSSSTAYMQLTSLTSEDSAVYYCARELLHAVYWGQGTLVTVSS
VL: DIQMTQSPSSLSASLGGKVTITCTASQDIHKYISWFQHKPGKGPRLLIHYTSTLQPGIPSRFSGSGSGRDYSFSISNLEPEDVATYYCLQYDNLWTFGGGTKLDIKR
notes: Murine variable regions on human IgG1 and human kappa constant regions; also called chimera
The term kon denotes the rate constant with which the complex forms. In test [4], B2 came in with a Kd of 0.0211 nM, a koff of 0.000566 s⁻¹ and a kon of 2.68e+07 M⁻¹ s⁻¹. In test [5], this molecule showed a Kd of 0.0184 nM, a koff of 0.000506 s⁻¹ and a kon of 2.75e+07 M⁻¹ s⁻¹.

B3: humanized antibody A0L1 (antibody, human IgG1, kappa, V domains shown)
VH: QVQLVQSGAEVKKPGASVKVSCKASGYTFTSYWMHWVRQAPGQGLEWMGEIDPSDSNTNYNQKFKGRVTMTRDTSISTAYMELSRLRSDDTAVYYCARELLHAVYWGQGTLVTVSS
VL: DIQMTQSPSSLSASVGDRVTITCTASQDIHKYISWYQQKPGKAPKLLIHYTSTLQPGVPSRFSGSGSGTDFTFTISSLQPEDIATYYCLQYDNLWTFGQGTKVEIKR
notes: Humanized 1C1.5E5, human IgG1/kappa
In test [4], B3 registered a Kd of 0.0679 nM, a koff of 0.00106 s⁻¹ and a kon of 1.56e+07 M⁻¹ s⁻¹. In test [5], this molecule displayed a Kd of 0.0676 nM, a koff of 0.001 s⁻¹ and a kon of 1.49e+07 M⁻¹ s⁻¹.

B4: humanized antibody A0L2 (antibody, human IgG1, kappa, V domains shown)
VH: QVQLVQSGAEVKKPGASVKVSCKASGYTFTSYWMHWVRQAPGQGLEWMGEIDPSDSNTNYNQKFKGRVTMTRDTSISTAYMELSRLRSDDTAVYYCARELLHAVYWGQGTLVTVSS
VL: DIQMTQSPSSLSASVGDRVTITCTASQDIHKYISWYQQKPGKAPKLLIHYTSTLQPGVPSRFSGSGSGTDYTFTISSLQPEDIATYYCLQYDNLWTFGQGTKVEIKR
notes: as for B3
Regarding B4, the binding result in test [6] is “binds”.

B5: humanized antibody A1L2 (antibody, human IgG1, kappa, V domains shown)
VH: QVQLVQSGAEVKKPGASVKVSCKASGYTFTSYWMHWVRQAPGQGLEWMGEIDPSDSNTNYNQKFKGKVTMTRDTSISTAYMELSRLRSDDTAVYYCARELLHAVYWGQGTLVTVSS
VL: DIQMTQSPSSLSASVGDRVTITCTASQDIHKYISWYQQKPGKAPKLLIHYTSTLQPGVPSRFSGSGSGTDYTFTISSLQPEDIATYYCLQYDNLWTFGQGTKVEIKR
notes: Humanized 1C1.5E5, human IgG1/kappa; also called AIL2
As to B5, in test [6], the binding result is “binds”.

B6: humanized antibody A1L1 (antibody, human IgG1, kappa, V domains shown)
VH: QVQLVQSGAEVKKPGASVKVSCKASGYTFTSYWMHWVRQAPGQGLEWMGEIDPSDSNTNYNQKFKGKVTMTRDTSISTAYMELSRLRSDDTAVYYCARELLHAVYWGQGTLVTVSS
VL: DIQMTQSPSSLSASVGDRVTITCTASQDIHKYISWYQQKPGKAPKLLIHYTSTLQPGVPSRFSGSGSGTDFTFTISSLQPEDIATYYCLQYDNLWTFGQGTKVEIKR
notes: Humanized 1C1.5E5, human IgG1/kappa; also called AIL1
Consider B6, for which, in test [6], the binding result is “binds”.

B7: humanized antibody A0L0 (antibody, human IgG1, kappa, V domains shown)
VH: QVQLVQSGAEVKKPGASVKVSCKASGYTFTSYWMHWVRQAPGQGLEWMGEIDPSDSNTNYNQKFKGRVTMTRDTSISTAYMELSRLRSDDTAVYYCARELLHAVYWGQGTLVTVSS
VL: DIQMTQSPSSLSASVGDRVTITCTASQDIHKYISWYQQKPGKAPKLLIYDTSTLQPGVPSRFSGSGSGTDFTFTISSLQPEDIATYYCLQYDNLWTFGQGTKVEIKR
notes: as for B3
In test [4], B7 gave a Kd of 0.0816 nM, a koff of 0.000772 s⁻¹ and a kon of 9.5e+06 M⁻¹ s⁻¹. In test [5], this molecule had a Kd of 0.0712 nM, a koff of 0.000791 s⁻¹ and a kon of 1.11e+07 M⁻¹ s⁻¹.

B8: humanized antibody A1L0 (antibody, human IgG1, kappa, V domains shown)
VH: QVQLVQSGAEVKKPGASVKVSCKASGYTFTSYWMHWVRQAPGQGLEWMGEIDPSDSNTNYNQKFKGKVTMTRDTSISTAYMELSRLRSDDTAVYYCARELLHAVYWGQGTLVTVSS
VL: DIQMTQSPSSLSASVGDRVTITCTASQDIHKYISWYQQKPGKAPKLLIYDTSTLQPGVPSRFSGSGSGTDFTFTISSLQPEDIATYYCLQYDNLWTFGQGTKVEIKR
notes: Humanized 1C1.5E5, human IgG1/kappa; also called AIL0
Consider B8, for which, in test [4], the Kd came to 0.0954 nM, the koff worked out at 0.00075 s⁻¹ and the kon came to 7.87e+06 M⁻¹ s⁻¹. In test [5], this molecule had a Kd of 0.0872 nM, a koff of 0.000735 s⁻¹ and a kon of 8.43e+06 M⁻¹ s⁻¹.

Values taken from US20110105724A1 (published 2011).
